Numbering of substitutions follows the chain as printed. Names may count otherwise.
Experiments:
[1] = target: the molecule itself; assay: crystal structure; T8^Y140F with Ac-CoA bound, 1.7 Å, space group P2_(1); a dimer in the asymmetric unit
[2] = target: the molecule itself; assay: SEC-MALS; size-exclusion chromatography with multi-angle laser light scattering (SEC-MALLS), in solution

B1: TacT^Y140F (tRNA-acetylating toxin, Y140F mutant) (enzyme)
chain: MGRVTAPEPLSAFHQVAEFVSGEAVLDDWLKQKGLKNQALGAARTFVVCKKDTKQVAGFYSLATGSVNHTEATGNLRRNMPDPIPVIILARLAVDLSFHGKGLGADLLHDAVLRCYRVAENIGVRAIMVHALTEEAKNFFIHHGFKSSQTQQRTLFLRLPQ
notes: also called T8^Y140F; source: purified; produced in the absence of its antitoxin A8 (E. coli expression strain BL21)
B1: binds [1].

B2: TacT (tRNA-acetylating toxin), wild type (enzyme)
chain: B1 chain with F140Y
notes: also called T8; the toxin
For B2, the “stoichiometry N” value [2] was 2.
